Values of other authors, collected in patent US10954506B2 (priority 2013, dated 2021).

Settings: in vivo, iv

B1: BChE: Butyrylcholinesterase, natural stoichiometric bioscavenger found as soluble protein in human plasma (protein, UniProt P06276 29-602, looked up)
Cholinesterase: EDDIIIATKNGKVRGMNLTVFGGTVTAFLGIPYAQPPLGRLRFKKPQSLTKWSDIWNATKYANSCCQNIDQSFPGFHGSEMWNPNTDLSEDCLYLNVWIPAPKPKNATVLIWIYGGGFQTGTSSLHVYDGKFLARVERVIVVSMNYRVGALGFLALPGNPEAPGNMGLFDQQLALQWVQKNIAAFGGNPKSVTLFGESAGAASVSLHLLSPGSHSLFTRAILQSGSFNAPWAVTSLYEARNRTLNLAKLTGCSRENETEIIKCLRNKDPQEILLNEAFVVPYGTPLSVNFGPTVDGDFLTDMPDILLELGQFKKTQILVGVNKDEGTAFLVYGAPGFSKDNNSIITRKEFQEGLKIFFPGVSEFGKESILFHYTDWVDDQRPENYREALGDVVGDYNFICPALEFTKKFSEWGNNAFFYYFEHRSSKLPWPEWMGVMHGYEIEFVFGLPLERRDNYTKAEEILSRSIVKRWANFAKYGNPNETQNNSTSWPVFKSTEQKYLTLNTESTRIMTKLRAQQCRFWTSFFPKVLEMTGNIDEAEWEWKAGFHRWNNYMMDWKNQFNDYTSKKESCVGL
effective dose: about 3 mg/kg
